For data set [1] the following is noted: cited from earlier work.
Data set [2] deals with EL-4 T-cell lymphoma. Briefly: IL-18 combination with doxorubicin in EL-4 T cell lymphoma, survival. The class given is in vivo, mouse. As to the method:
Studies were performed in female C57/BL/6 mice. As a general protocol, C57/BL mice were injected I.P. with 0.2 cc of stock EL-4 cells. EL-4 murine T-lymphoma cells were expanded in RPMI w/10% FCS. All animals were randomized to six or seven mice per study group with food and water ad libitum. EL-4 cells were harvested on day 0, counted and implanted I.P. with 5×10^5 EL-4 lymphoma cells. Animals were randomized to treatment groups of 6/7 animals on Day 3. Doxorubicin was administered IV on Days 3 &10, pos-implantation. mIL-18 (SEQ ID NO:2) was administered S.C. on Days 3-16. The animals were observed daily for toxicity and mortality.
All animals tolerated dosing schedule and levels well by gross observation. On day 16, all dosing was terminated, and median vehicle death occurred on day 17.5. All vehicle mice expired between days 16-18 post-implantation. Increase in lifespan was calculated by study group/vehicle group−1×100%. For mIL-18 (SEQ ID NO:2) combination therapy with doxorubicin in EL-4 T cell lymphoma, the data were analyzed with respect to median survival time and increase in lifespan.
The prolongation of life span in response to combinational therapy with mIL-18 (SEQ ID NO:2) and doxorubicin was assessed in the syngeneic tumor model of female C57BI/6 mice bearing EL-4 T-cell lymphoma. […] As described below, when vehicle animals expired (on day 16) all dosing was terminated. […]

For data set [3], the system named is NK cells. Briefly: NK cytotoxicity assay in EL-4 T-cell lymphoma model. As to conditions: 21 hours post-treatment (FIG. 12).
Data set [4] deals with murine colon carcinoma, Colo 26. Briefly: IL-18 and 5-FU combination in syngeneic murine colon cancer model Colo26. The class given is in vivo, mouse. To be noted: 5-FU alone or mIL-18 alone. As to the method: This study aimed to evaluate the efficacy of mIL-18 (SEQ ID NO:2) combination therapy with 5-fluorouracil (5-FU), as compared to monotherapy with 5-FU, or mIL-18 (SEQ ID NO:2) alone. Our study was performed in a well established syngeneic subcutaneous model of murine colon carcinoma, Colo 26, in BALB/c mice. The dosing with mIL-18 (SEQ ID NO:2) was performed daily with 10 μg/mouse s.c. on days 10-30 after tumor inoculation. The dosing with 5-FU was performed i.p. twice a week in the ascending dose: 27, 45 and 74 μg/mouse.
The data comparing tumor volumes in different treatment groups were evaluated at a selected representative time-point, and were expressed as mean+/−SD (FIG. 21), and as median+/−range (FIG. 22). The data were first checked for normal distribution (Gaussian approximation), and standard deviation values were compared to make sure that there is an equal variance. […] Therefore, a non-parametric test (Kruskal-Wallis analysis and Dunn's comparison test) was used for the statistical evaluation. […] FIG. 24 (median+/−SD) and FIG. 25 (mean+/−SD) show the effect of IL-18 and 5-FU combination therapy in same Colo26 syngeneic colon tumor model. […]
Survival of mice bearing Colo26 in different treatment groups was plotted in a Kaplan-Meyer survival curve analysis, and evaluated by Logrank test, and is shown in FIG. 26. […]

For data set [5], the system named is MOPC-315 plasmacytoma. Briefly: IL-18 monotherapy in advanced MOPC-315 plasmacytoma model. The class given is in vivo, mouse. The source says:
Based upon a broad spectrum of immunostimulatory properties, IL-18 has been studied in a variety of preclinical tumor models. […] Further support for IL-18 mediated cellular immunity also comes from immunohistochemistry performed on established MOPC-315 tumors in control and IL-18 treated mice. […] In addition, it seems that an intact Fas/Fas ligand pathway is beneficial to anti-tumor response.

The test system of data set [6] is NK cells.
Data set [7] deals with human Ramos B-cell lymphoma line. Briefly: IL-18 combination therapy with RITUXAN in murine human B-cell lymphoma model. The class given is in vivo, mouse. To be noted: first experiment (FIG. 3); mIL-18 single agent 100 μg/dose.
Protocol: The study was performed in outbred female homozygous SCID mice (ICR-Prkdc^scid) that lack both T and B cells.
Mice were injected with human Ramos B-cell lymphoma line that was originally derived from a patient with Burkitt's lymphoma (ATCC catalogue, CRL 1596). The tumor 1:10 homogenate was inoculated into 6-8 week old mice at the dose 0.5 ml per mouse. […] The therapy was initiated when the median tumor volume per group reached 80-150 mm^3 (at day 12 post tumor inoculation). In addition, those mice that grew a tumor with a volume outside of the set limits were excluded from the study.
The number of animals was increased to n=12, in order to have a better window to measure statistical significance. Tumor volume was measured using the viener calipers two to three times a week.

Read-outs that look alike come from different tables or passages of the source.

Consider “human IL-18: recombinant mature form of human interleukin-18 (SEQ ID NO: 1), expressed in Escherichia coli”, for which the “toxicity at highest dose tested” value in data set [1] (2000 μg/kg administered weekly for up to 24 weeks) is reported as “no significant toxicity”. Further, the maximum tolerated dose result in data set [1] (up to 2000 μg/kg weekly for up to 24 weeks) was “not identified”.

As to `COc1cccc2c1C(=O)c1c(O)c3c(c(O)c1C2=O)C[C@@](O)(C(=O)CO)C[C@@H]3O[C@H]1C[C@H](N)[C@H](O)[C@H](C)O1` [doxorubicin, reference compound], the increase in lifespan result in data set [2] (doxorubicin monotherapy 12 mg/kg IV days 3 & 10) is “minimal increase in lifespan”. Also, in data set [3], the NK cytotoxicity entry is “impaired”.

For the molecule `O=c1[nH]cc(F)c(=O)[nH]1` [5-FU, 5-fluorouracil, reference compound], the “therapeutic effect of monotherapy compared to control” value in data set [4] was “did not show a therapeutic effect better than a control”.

B1: mIL-18: recombinant murine IL-18 (SEQ ID NO:2), used in the pre-clinical studies (protein)
chain: NFGRLHCTTAVIRNINDQVLFVDKRQPVFEDMTDIDQSASEPQTRLIIYMYKDSEVRGLAVTLSVKDSKMSTLSCKNKIISFEEMDPPENIDDIQSDLIFFQKRVPGHNKMEFESSLYEGHFLACQKEDDAFKLILKKKDENGDKSVMFTLTNLHQS
modifications: Murine
On to B1, for which the tumor response result in data set [5] (5 mg/Kg daily for approximately 30 days, advanced tumor) was “reproducible tumor regressions and cure”. In data set [5] (SCIDs bearing advanced MOPC-315 tumors, similar schedule), the “tumor response in SCID mice” value was “failed to regress”. Further, the “rechallenge with parental tumor” value in data set [5] (after cure with IL-18) was “tumor rejection”. Further, the increase in lifespan result in data set [2] (IL-18 monotherapy 1, 5 and 25 ug/dose S.C. days 3-16) is listed as “did not show any increase in lifespan”. Moreover, the “therapeutic effect of monotherapy compared to control” value in data set [4] is given as “did not show a therapeutic effect better than a control”. Moreover, in data set [6], the NK cytotoxicity entry is on record as “robust NK cytotoxicity”. Further, the anti-tumor activity entry in data set [7] is recorded as “no activity”.
